Laboratory results published in patent US20210340238A1, “TGFß1 INHIBITORS AND USE THEREOF” (Scholar Rock, Inc., priority 2018, published 2021).

Key:
[1] = test system: TGFβ downstream tonic signaling; assay: TGFβ downstream tonic signaling in non-diseased rat BAL; format: in vivo
[2] = rat, in vivo
Experimental: Animals receiving pan-TGFβ antibody were dosed once intravenously (at day 1) at a volume of 10 mL/kg and sacrificed at day 8 and necropsies performed. […] Animals receiving LY2109761 were dosed by oral gavage once daily for five or seven days. Animals were sacrificed and necropsies performed.

[3] = in vivo, cited from earlier work

Compound	Effect on TGFβ downstream tonic signaling [1]	Bone findings [2]	Exposure: DN Cmax ([3]; human)	Exposure: Half-life ([3]; human)	Previously reported adverse events in human patients (CTCAE grade) [3]
c1ccc(-c2nn3c(c2-c2ccnc4cc(OCCN5CCOCC5)ccc24)CCC3)nc1 [LY2109761]	inhibit TGFβ downstream tonic signaling in non-diseased rat BAL	macroscopic abnormally shaped sternum and microscopic increased thickness of the hypertrophic zone in the endplate of the sternum and physis of the femur and tibia			
GC1008: human analog of 1D11, pan-TGFβ antibody Fresolimumab (GC1008)			DN Cmax~(350 ng/mL)mg (ng/mL)mg	Half-life: 21.7 d	leukocytosis (grade 3), fatigue (grade 3), hypoxia (grade 3), asystole (grade 5), leukopenia (grade 1), recurrent, transient, tender erythematous, nodular skin lesions, suppurative dermatitis, and herpes zoster
